From the supplement of paper PMC10567573

B1: FOXJ1 (parent)
chain: SAIYKWITDNFCYFRHADPTWQNS
B2: SMOC2 (parent)
chain: QKPLCASDGRTFLSRCEFQRAKCK

Variants of: B1
Assay: protein stability index of a GFP-peptide fusion (GPS, HEK-293T) (PSI 1-6); higher = more stable
Details: c terminus: a fixed tail appended
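Note: lentivirally expressed fusions sorted by FACS into six bins by GFP to DsRed ratio, PSI derived from sequencing read proportions per bin multiplied by bin number.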

Compared with SNIYKWITDNFCYFRHADPTWQNS [A2N], SEIYKWITDNFCYFRHADPTWQNS [A2E] is lower in protein stability index: 2.25 for the first, 1.44 for the second.

Compared with SPIYKWITDNFCYFRHADPTWQNS [A2P], SHIYKWITDNFCYFRHADPTWQNS [A2H] is lower in protein stability index: 3.53 for the first, 3.1 for the second.

First: SQIYKWITDNFCYFRHADPTWQNS [A2Q]
Second: SLIYKWITDNFCYFRHADPTWQNS [A2L]
The protein stability index of the first is higher: 2.49 for the first, 2.45 for the second.

Compared with SWIYKWITDNFCYFRHADPTWQNS [A2W], SVIYKWITDNFCYFRHADPTWQNS [A2V] is lower in protein stability index: 2.53 for the first, 2.4 for the second.

First: SYIYKWITDNFCYFRHADPTWQNS [A2Y]
Second: SCIYKWITDNFCYFRHADPTWQNS [A2C]
The protein stability index of the first is lower: 2.04 for the first, 3.04 for the second.

First: SFIYKWITDNFCYFRHADPTWQNS [A2F]
Second: SGIYKWITDNFCYFRHADPTWQNS [A2G]
The protein stability index of the first is higher: 4.1 for the first, 2.87 for the second.

Compared with SRIYKWITDNFCYFRHADPTWQNS [A2R], SIIYKWITDNFCYFRHADPTWQNS [A2I] is higher in protein stability index: 2.52 for the first, 3.56 for the second.

Compared with SKIYKWITDNFCYFRHADPTWQNS [A2K], LAIYKWITDNFCYFRHADPTWQNS [S1L] is lower in protein stability index: 2.72 for the first, 2.55 for the second.

First: HAIYKWITDNFCYFRHADPTWQNS [S1H]
Second: WAIYKWITDNFCYFRHADPTWQNS [S1W]
The protein stability index of the first is lower: 2.92 for the first, 3.8 for the second.

First: EAIYKWITDNFCYFRHADPTWQNS [S1E]
Second: DAIYKWITDNFCYFRHADPTWQNS [S1D]
The protein stability index of the first is higher: 3.4 for the first, 3.17 for the second.

First: AAIYKWITDNFCYFRHADPTWQNS [S1A]
Second: CAIYKWITDNFCYFRHADPTWQNS [S1C]
The protein stability index of the first is lower: 3.31 for the first, 3.86 for the second.

Compared with GAIYKWITDNFCYFRHADPTWQNS [S1G], FAIYKWITDNFCYFRHADPTWQNS [S1F] is higher in protein stability index: 3.32 for the first, 3.6 for the second.

Compared with PAIYKWITDNFCYFRHADPTWQNS [S1P], VAIYKWITDNFCYFRHADPTWQNS [S1V] is lower in protein stability index: 2.9 for the first, 2.43 for the second.

First: IAIYKWITDNFCYFRHADPTWQNS [S1I]
Second: MAIYKWITDNFCYFRHADPTWQNS [S1M]
The protein stability index of the first is higher: 4.71 for the first, 3.02 for the second.

Going from NAIYKWITDNFCYFRHADPTWQNS [S1N] to YAIYKWITDNFCYFRHADPTWQNS [S1Y], the protein stability index falls from 2.5 to 2.05.

First: TAIYKWITDNFCYFRHADPTWQNS [S1T]
Second: QAIYKWITDNFCYFRHADPTWQNS [S1Q]
The protein stability index of the first is higher: 3.01 for the first, 2.31 for the second.

KAIYKWITDNFCYFRHADPTWQNS [S1K] showed a protein stability index of 3.58.

Variants of: B2
Assay: as above
Details: c terminus: a fixed tail appended

Compared with QKPLCASDGRTFLSRNEFQRAKCK [C16N], QKPLCASDGRTFLSRSEFQRAKCK [C16S] is lower in protein stability index: 4.28 for the first, 3.83 for the second.

Going from QKPLCASDGRTFLSRVEFQRAKCK [C16V] to QKPLCASDGRTFLSRWEFQRAKCK [C16W], the protein stability index rises from 2.61 to 2.89.

Compared with QKPLCASDGRTFLSRTEFQRAKCK [C16T], QKPLCASDGRTFLSRREFQRAKCK [C16R] is higher in protein stability index: 3.96 for the first, 4.44 for the second.

First: QKPLCASDGRTFLSRYEFQRAKCK [C16Y]
Second: QKPLCASDGRTFLSRPEFQRAKCK [C16P]
The protein stability index of the first is lower: 3.06 for the first, 3.57 for the second.

Going from QKPLCASDGRTFLSRCEFQRAKAK [C23A] to QKPLCASDGRTFLSRCEFQRAKYK [C23Y], the protein stability index falls from 2.9 to 1.85.

Going from QKPLCASDGRTFLSRCEFQRAKNK [C23N] to QKPLCASDGRTFLSRCEFQRAKGK [C23G], the protein stability index falls from 4 to 3.62.

Compared with QKPLCASDGRTFLSRCEFQRAKDK [C23D], QKPLCASDGRTFLSRCEFQRAKIK [C23I] is lower in protein stability index: 3.92 for the first, 3.41 for the second.

Going from QKPLCASDGRTFLSRCEFQRAKTK [C23T] to QKPLCASDGRTFLSRCEFQRAKLK [C23L], the protein stability index rises from 2.84 to 3.03.

First: QKPLCASDGRTFLSRCEFQRAKMK [C23M]
Second: QKPLCASDGRTFLSRCEFQRAKPK [C23P]
The protein stability index of the first is lower: 3.15 for the first, 4.01 for the second.

Going from QKPLCASDGRTFLSRCEFQRAKRK [C23R] to QKPLCASDGRTFLSRCEFQRAKQK [C23Q], the protein stability index falls from 4.18 to 3.91.

Going from QKPLCASDGRTFLSRCEFQRAKKK [C23K] to QKPLCASDGRTFLSRCEFQRAKEK [C23E], the protein stability index falls from 4.07 to 3.32.

Compared with QKPLCASDGRTFLSRCEFQRAKHK [C23H], QKPLCASDGRTFLSRCEFQRAKWK [C23W] is lower in protein stability index: 3.92 for the first, 2.34 for the second.

Going from QKPLCASDGRTFLSRCEFQRAKSK [C23S] to QKPLCASDGRTFLSRCEFQRAKFK [C23F], the protein stability index falls from 3.69 to 1.88.

First: QKPLCASDGRTFLSRCEFYRAKCK [Q19Y]
Second: QKPLCASDGRTFLSRCEFERAKCK [Q19E]
The protein stability index of the first is lower: 3.13 for the first, 3.48 for the second.

First: QKPLCASDGRTFLSRCEFLRAKCK [Q19L]
Second: QKPLCASDGRTFLSRCEFVRAKCK [Q19V]
The protein stability index of the first is lower: 2 for the first, 2.71 for the second.

First: QKPLCASDGRTFLSRCEFSRAKCK [Q19S]
Second: QKPLCASDGRTFLSRCEFKRAKCK [Q19K]
The protein stability index of the first is higher: 4.18 for the first, 3.67 for the second.

Compared with QKPLCASDGRTFLSRCEFIRAKCK [Q19I], QKPLCASDGRTFLSRCEFDRAKCK [Q19D] is higher in protein stability index: 3 for the first, 3.83 for the second.

Going from QKPLCASDGRTFLSRCEFHRAKCK [Q19H] to QKPLCASDGRTFLSRCEFTRAKCK [Q19T], the protein stability index falls from 3.58 to 3.36.

Going from QKPLCASDGRTFLSRCEFCRAKCK [Q19C] to QKPLCASDGRTFLSRCEFNRAKCK [Q19N], the protein stability index falls from 3.48 to 3.34.

First: QKPLCASDGRTFLSRCEFFRAKCK [Q19F]
Second: QKPLCASDGRTFLSRCEFMRAKCK [Q19M]
The protein stability index of the first is lower: 2.53 for the first, 3.09 for the second.

Compared with QKPLCASDGRTFLSRCEFWRAKCK [Q19W], QKPLCASDGRTFLSRCEFARAKCK [Q19A] is higher in protein stability index: 1.55 for the first, 2.98 for the second.

First: QKPLCASDGRTFLSRCEFPRAKCK [Q19P]
Second: QKPLCASDGRTFLSRCEFGRAKCK [Q19G]
The protein stability index of the first is higher: 3.28 for the first, 3.15 for the second.

First: QKPLCASDGRTFLSRCEFQRAKCL [K24L]
Second: QKPLCASDGRTFLSRCEFQRAKCA [K24A]
The protein stability index of the first is lower: 2.5 for the first, 3 for the second.

Compared with QKPLCASDGRTFLSRCEFQRAKCG [K24G], QKPLCASDGRTFLSRCEFQRAKCE [K24E] is higher in protein stability index: 2.95 for the first, 3.19 for the second.

Going from QKPLCASDGRTFLSRCEFQRAKCR [K24R] to QKPLCASDGRTFLSRCEFQRAKCV [K24V], the protein stability index rises from 1.74 to 2.62.

First: QKPLCASDGRTFLSRCEFQRAKCP [K24P]
Second: QKPLCASDGRTFLSRCEFQRAKCS [K24S]
The protein stability index of the first is lower: 2.83 for the first, 2.88 for the second.

First: QKPLCASDGRTFLSRCEFQRAKCM [K24M]
Second: QKPLCASDGRTFLSRCEFQRAKCW [K24W]
The protein stability index of the first is higher: 2.62 for the first, 2.36 for the second.

Compared with QKPLCASDGRTFLSRCEFQRAKCY [K24Y], QKPLCASDGRTFLSRCEFQRAKCT [K24T] is higher in protein stability index: 2.49 for the first, 3.18 for the second.

Compared with QKPLCASDGRTFLSRCEFQRAKCQ [K24Q], QKPLCASDGRTFLSRCEFQRAKCN [K24N] is lower in protein stability index: 2.64 for the first, 2.48 for the second.

Compared with QKPLCASDGRTFLSRCEFQRAKCI [K24I], QKPLCASDGRTFLSRCEFQRAKCD [K24D] is higher in protein stability index: 2.23 for the first, 3.35 for the second.

QKPLCASDGRTFLSRCEFQRAKCC [K24C] gave a protein stability index of 1.98.
